Measured values as given in the supplement of paper PMC10567573.

B1: TMEM106C (parent)
chain: FTGRDSITCLTCQGTGYIPTEQVN

Variants of: B1
Assay: protein stability index of a GFP-peptide fusion (GPS, HEK-293T) (PSI 1-6); higher = more stable
Conditions: c terminus: a fixed tail appended
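Also: lentivirally expressed fusions sorted by FACS into six bins by GFP to DsRed ratio, PSI derived from sequencing read proportions per bin multiplied by bin number.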

Row | Variant | protein stability index
1 | FTGRDSITCLTCQGTGHIPTEQVN [Y17H] | 2.61
2 | FTGRDSITCLTCQGTGIIPTEQVN [Y17I] | 1.92
3 | FTGRDSITCLTCQGTGMIPTEQVN [Y17M] | 1.77
4 | FTGRDSITCLTCQGGGYIPTEQVN [T15G] | 1.43
5 | FTGRDSITCLTCQGVGYIPTEQVN [T15V] | 2.04
6 | FTGRDSITCLTCQGLGYIPTEQVN [T15L] | 1.89
7 | FTGRDSITCLTCQGNGYIPTEQVN [T15N] | 1.62
8 | FTGRDSITCLTCQGIGYIPTEQVN [T15I] | 2.16
9 | FTGRDSITCLTCQGDGYIPTEQVN [T15D] | 1.81
10 | FTGRDSITCLTCQGHGYIPTEQVN [T15H] | 2.09
11 | FTGRDSITCLTCQGCGYIPTEQVN [T15C] | 2.26
12 | FTGRDSITCLTCQGTGYIPTEQVR [N24R] | 2.37
13 | FTGRDSITCLTCQGTGYIPTEQVK [N24K] | 2.33
14 | FTGRDSITCLTCQGTGYIPTEQVE [N24E] | 2.47
15 | FTGRDSITCLTCQGTGYIPTEQVW [N24W] | 3.36
16 | FTGRDSITCLTCQGTGYIPTEQVP [N24P] | 1.76
17 | FTGRDSITCLTCQGTGYIPTEQVA [N24A] | 1.89
18 | FTGRDSITCLTCQGTGYIPTEQVC [N24C] | 2.25
19 | FTGRDSITCLTCQGTGYIPTEQVV [N24V] | 2.24
20 | FTGRDSITCLTCQGTGYIPTEQVG [N24G] | 2.29
21 | RTGRDSITCLTCQGTGYIPTEQVN [F1R] | 4.35
22 | ITGRDSITCLTCQGTGYIPTEQVN [F1I] | 3.94
23 | KTGRDSITCLTCQGTGYIPTEQVN [F1K] | 4.29
24 | CTGRDSITCLTCQGTGYIPTEQVN [F1C] | 3.92

Row | Variant | protein stability index
25 | NTGRDSITCLTCQGTGYIPTEQVN [F1N] | 4.48
26 | ETGRDSITCLTCQGTGYIPTEQVN [F1E] | 4.7
27 | VTGRDSITCLTCQGTGYIPTEQVN [F1V] | 4.43
28 | LTGRDSITCLTCQGTGYIPTEQVN [F1L] | 4.16
29 | STGRDSITCLTCQGTGYIPTEQVN [F1S] | 4.33
30 | HTGRDSITCLTCQGTGYIPTEQVN [F1H] | 4.52
31 | FTGRDSIKCLTCQGTGYIPTEQVN [T8K] | 1.79
32 | FTGRDSIRCLTCQGTGYIPTEQVN [T8R] | 1.41
33 | FTGRDSIVCLTCQGTGYIPTEQVN [T8V] | 2.09
34 | FTGRDSIICLTCQGTGYIPTEQVN [T8I] | 1.82
35 | FTGRDSITCLLCQGTGYIPTEQVN [T11L] | 1.66
36 | FTGRDSITCLGCQGTGYIPTEQVN [T11G] | 1.64
37 | FTGRDSITCLICQGTGYIPTEQVN [T11I] | 1.52
38 | FTGRDSITCLPCQGTGYIPTEQVN [T11P] | 1.55
39 | FTGRDSITCLFCQGTGYIPTEQVN [T11F] | 2.85
40 | FTGRDSITCLECQGTGYIPTEQVN [T11E] | 2.01
41 | FTGRDSITCLCCQGTGYIPTEQVN [T11C] | 1.86
42 | FTGRDSITCLACQGTGYIPTEQVN [T11A] | 2.32
43 | FTGRDSITCLTCQQTGYIPTEQVN [G14Q] | 1.99
44 | FTGRDSITCLTCQCTGYIPTEQVN [G14C] | 1.89
45 | FTGRDSITCLTCQLTGYIPTEQVN [G14L] | 2.8
46 | FTGRDSITCLTCQWTGYIPTEQVN [G14W] | 1.69
47 | FTGRDSITCLTCQETGYIPTEQVN [G14E] | 2.28
48 | FTGRDSITCLTCQFTGYIPTEQVN [G14F] | 2.99

Row | Variant | protein stability index
49 | FTGRDSITCLTCQRTGYIPTEQVN [G14R] | 2.24
50 | FTGRDSITCLTCQVTGYIPTEQVN [G14V] | 2.35
51 | FTGRDSITCLTCQGTGYIPTEQHN [V23H] | 2.11
52 | FTGRDSITCLTCQGTGYIPTEQAN [V23A] | 2.21
53 | FTGRDSITCLTCQGTGYIPTEQDN [V23D] | 1.54
54 | FTGRDSITCLTCQGTGYIPTEQLN [V23L] | 1.7
55 | FTGRDSITCLTCQGTGYIPTEQFN [V23F] | 1.73
56 | FTGRDSITCLTCQGTGYIPTEQQN [V23Q] | 1.72
57 | FTGRDSITCLTCQGTGYIPTEQPN [V23P] | 1.89
58 | FTGRDSITCLTCQGTGYIPTEQSN [V23S] | 1.51
59 | FTGRDSITCLTCQGTGYIPTEQNN [V23N] | 2.12
60 | FTGRDSITCLTCQGTGYIPTEQTN [V23T] | 2.09
61 | FTGRDSITCLTCQGTGYIPTNQVN [E21N] | 2.39
62 | FTGRDSITCLTCQGTGYIPTDQVN [E21D] | 1.82
63 | FTGRDSITCLTCQGTGYIPTAQVN [E21A] | 1.79
64 | FTGRDSITCLTCQGTGYIPTHQVN [E21H] | 1.79
65 | FTGRDSITCLTCQGTGYIPTLQVN [E21L] | 2.03
66 | FTGRDSITCLTCQGTGYIPTTQVN [E21T] | 2.08
67 | FTGRDSITCLTCQGTGYIPTQQVN [E21Q] | 1.94
68 | FTGRDSITCLTCQGTGYIPTMQVN [E21M] | 1.75
69 | FTGRDSITCLTCQGTGYIPTVQVN [E21V] | 2.59
70 | FTGRDSITCLTCQGTGYHPTEQVN [I18H] | 2.4
71 | FTGRDSITCLTCQGTGYEPTEQVN [I18E] | 1.53
72 | FTGRDSITCLTCQGTGYNPTEQVN [I18N] | 1.61

Row | Variant | protein stability index
73 | FTGRDSITCLTCQGTGYYPTEQVN [I18Y] | 1.68
74 | FTGRDSITCLTCQGTGYGPTEQVN [I18G] | 1.48
75 | FTGRDSITCLTCQGTGYVPTEQVN [I18V] | 1.64
76 | FTGRDSITCLTCQGTGYQPTEQVN [I18Q] | 2
77 | FTGRDSITHLTCQGTGYIPTEQVN [C9H] | 1.73
78 | FTGRDSITKLTCQGTGYIPTEQVN [C9K] | 2.17
79 | FTGRDSITMLTCQGTGYIPTEQVN [C9M] | 2.88
80 | FTGRDSITGLTCQGTGYIPTEQVN [C9G] | 1.75
81 | FTGRDSITLLTCQGTGYIPTEQVN [C9L] | 2.04
82 | FTGRDSITSLTCQGTGYIPTEQVN [C9S] | 2.28
83 | FTGRDSITPLTCQGTGYIPTEQVN [C9P] | 2.1
84 | FTGRDSGTCLTCQGTGYIPTEQVN [I7G] | 2.16
85 | FTGRDSVTCLTCQGTGYIPTEQVN [I7V] | 1.77
86 | FTGRDSTTCLTCQGTGYIPTEQVN [I7T] | 2.78
87 | FTGRDSMTCLTCQGTGYIPTEQVN [I7M] | 1.76
88 | FTGRDSKTCLTCQGTGYIPTEQVN [I7K] | 2.32
89 | FTGRDSDTCLTCQGTGYIPTEQVN [I7D] | 2.83
90 | FTGRDSITCLTQQGTGYIPTEQVN [C12Q] | 1.95
91 | FTGRDSITCLTKQGTGYIPTEQVN [C12K] | 2
92 | FTGRDSITCLTLQGTGYIPTEQVN [C12L] | 1.79
93 | FTGRDSITCLTMQGTGYIPTEQVN [C12M] | 2.09
94 | FTGRDSITCLTSQGTGYIPTEQVN [C12S] | 2
